The results in this text go back to paper PMC4504005 (2015).

Where “and” joins values, the source holds several entries; their conditions need not be identical. Equal values may be shown once. Ends that are not written are not given here.

For experiment [1], the target named is wild-type tethered MBP-RAMP2 ECD-CLR ECD fusion protein (UniProt O60895 43-143).
Experiment [2] has as its target MBP-RAMP2 ECD [L106R]-(GSA)3-CLR ECD-H6 tethered fusion protein (UniProt O60895 43-143, L106R).
In experiment [3] the target is MBP-RAMP1 ECD-(GSA)3-CLR ECD-H6 tethered fusion protein (UniProt O60894 27-118).

TVQKLAHQIYQFTDKDKDNVAPRSKISPQGY-NH2 [AM(22–52)NH2]: the IC50 (commonly the concentration at which inhibition is half-maximal) is 4.79 µM in experiment [1]; 5.37 µM and 12.9 µM in experiment [2].

Consider FVPTDVGPFAY-NH2 [CGRPmut [F37Y]], for which it took 0.575 µM to reach half-maximal inhibition in experiment [3] (IC50).
